Measured values from article PMC11260360 (Nature structural & molecular biology, 2023).
Changes are numbered by the printed parent chain. Names may count otherwise. Values belong to the binder of their own block, whether it stands above or below them.

Molecular target: DENND10 (recombinant, pull-down) (human, UniProt Q8TCE6 1-357)
Assay: pull-down

Sequence of DENND10 (recombinant, pull-down) (Q8TCE6 whole entry): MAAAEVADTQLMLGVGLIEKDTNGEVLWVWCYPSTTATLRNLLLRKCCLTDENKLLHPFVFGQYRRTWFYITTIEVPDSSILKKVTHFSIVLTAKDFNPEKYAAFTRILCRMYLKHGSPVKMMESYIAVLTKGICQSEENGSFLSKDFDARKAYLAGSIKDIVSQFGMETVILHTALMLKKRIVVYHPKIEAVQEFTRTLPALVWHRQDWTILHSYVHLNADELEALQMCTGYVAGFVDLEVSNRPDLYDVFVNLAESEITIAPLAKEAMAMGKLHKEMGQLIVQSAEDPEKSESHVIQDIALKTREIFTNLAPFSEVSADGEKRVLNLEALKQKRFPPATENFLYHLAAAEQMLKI

binding result: binds
B1: MBP-tagged CCDC22-CCDC93 DBD (complex, human)
chain 1: GAGAKTGAPKGSRFTHSEKFTFHLEPQAQATQVSDVPATSRRPEQVTWAAQEQELESLREQLEGVNRSIEEVEADMKTLGVSFVQAESECRHSKLSTAEREQALRLKSRAVELLPDGTANLAKLQLVVENSAQRVIHLAGQWEKHRVPLLAEYRHLRKLQDCRELES
chain 2: SPEKLGTSQLHRRKVISLNKQIAQKTKHLEELRASHTSLQARYNEAKKTLTELKTYSEKLDKEQAALEKIESKADPSILQNLRALVAMNENLKSQEQEFKAHCREEMTRLQQEIENLKAERAPRGDEKT

binding result: binds
B2: MBP-tagged CCDC22-CCDC93 DBD, CCDC93 E410R (complex, human)
chain 1: B1 chain 1
chain 2: B1 chain 2 with E106R
